Experiment: yeast display, Sf9 membrane polyspecificity reagent, FACS + sequencing; frameworks hold sequencing errors
Outline: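 Nanobodies from a synthetic yeast display library (Saccharomyces cerevisiae BJ5465), induced 36–48 hours with galactose, were stained 1 hour at 4 °C with 10% biotinylated, detergent-solubilized Sf9 membrane reagent, enriched on streptavidin microbeads, then FACS-sorted. Anti-HA (expression) and streptavidin (reagent binding) fluorescence set low and high (top ~1%) gates. Polyreactivity labels come from the gate of origin. Genes were colony-PCR amplified, MiSeq 2 × 250 sequenced and filtered by CDR length.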

Sequence	polyreactivity (PSR sort gate)
QVQLVESGGGLVQAGGSLRLSCAASGRTIVTNAMGWYRQAPGKERELVAAITTRGSRTYYADSVKGRFTISRDNAKNTVYLQMNSLKPEDTAVYYCAAKQKHTQQTGWKYEYWGQGTQVTVSS	high polyreactivity
QVQLVESGGGLVQAGGSLRLSCAASGRTIVYYAMGRYRQAPGKERELVAAISSSGSTYYADSVKGRFTISRDNAKNTVYLQMNSLKPEDTAVYYCATTHDYWLWGMGYWGQGTQVTVSS	high polyreactivity
QVQLVESGGGLVQAGGSLRLSCAASGRTIYKYMGWDRQAPGKERELVAAIRWSGGSTYYADSVKGRFTISRDNAKNTVYLQMNSLKPEETAVYYCNVDSYGYKYDYWGQGTQVTVSS	low polyreactivity
QVQLVESGGGLVQAGGSLRLSCAASGRTIYRNAMGWYRQAPGKERELVAAISRSGGRTFYAYSVKGRFTISRDNAKNTVYLQMNSLKPEDTEVYYCADESYGVRLPSGYWGQGTQVTVSS	high polyreactivity
QVQLVESGGGLVQAGGSLRLSCAASGRTLADNAMGWYRQAPGKERELVAAITFSGDTTYYADSVKGRFTISRDNAKNTVYLQMNSLKPEDTAVYYCAAESSDPRAYDYWGQGTQVTVSS	low polyreactivity
QVQLVESGGGLVQAGGSLRLSCAASGRTLARNAMGWYRQAPGKERELVASINGRTTRTYYADSVKGRFTISRDNAKNTVYLQMNSLKPEDPAVYYCAARATNVYSKMDYWGQGTQVTVSS	high polyreactivity
QVQLVESGGGLVQAGGSLRLSCAASGRTLARYAMGGYRQAPGKERELVAAISSSGGSTYYADSVKGRFTISRDNAKNTVYLQMNSLKPEDTAVYYCAAGWRYRYFRSRNFYPYYYWGQGTQVTVSS	high polyreactivity
QVQLVESGGGLVQAGGSLRLSCAASGRTLASYGMGWYRQAPGKERELVAAISSRGGTTYYADSVKGRFTISRDNAKNTVYLQMNSLKPEDTAVYYCAKPGRYWGQGTQVTVSS	high polyreactivity
QVQLVESGGGLVQAGGSLRLSCAASGRTLATYAMGWYRQAPGKERELVADISWRGGTTYYADSVKGRFTISRDNAKNTVYLQMNSLKPEDTAVYYCAKRFLFHSYYWGQGSQVTVSS	high polyreactivity
QVQLVESGGGLVQAGGSLRLSCAASGRTLDLYAMGWYRQAPGKERELVAAISWRGGRTYYADSVKGRFTISRDNAQTTVYLQMNSLKPEDTAVYYCKADYPWSVVGYDYWGQGTQVSVSS	low polyreactivity
QVQLVESGGGLVQAGGSLRLSCAASGRTLDSNAMGWYRQAPGKERELVAAISSAGSTNYADSVKGRFTISRDNAKNTVYLQMNRLQPEDTAVYYCAADLIGSHDYWGQGTQVTVSS	low polyreactivity
QVQLVESGGGLVQAGGSLRLSCAASGRTLEHNAMGWYRQAPGKERELVAAITDGGASTYYADSVKGRFTISRENAKNTVYLQMNSLKPEDTAVYYFAADTYPTTSEFDYWGQGTQVTVSS	low polyreactivity
QVQLVESGGGLVQAGGSLRLSCAASGRTLFHYAMGWYRQAPGKERELVAAIRNSDGSTYYADSVKGRFTISRDNAKNSVYLQMNSLKPEDTGDYNCAAKYKYGTYNYWGQGSQVTVSS	high polyreactivity
QVQLVESGGGLVQAGGSLRLSCAASGRTLFPNVMGWYRQAPGKERELVAAITTIGGSTYYADSVKGRFTISRDNGKNTVFLQMNSLKPEDTEVYYCNARYRGRGLKFAYWGQGTQVTVSS	high polyreactivity
QVQLVESGGGLVQAGGSLRLSCAASGRTLGGNAMGWYRQAPGQERELVAAITNSASTYADSVKGRFTISRDNAKNTVYIQMNSLKPEDTAVYYCTAPDPSDQNGDYWGQGTQVTVSS	low polyreactivity
QVQLVESGGGLVQAGGSLRLSCAASGRTLGQNVMGWYRQAPGKERELVAAISSNTAGNTYYADSVKGRFTISRDNAKNTVYLQMNSLKPEDTAVYYCAIVDSFEAILDYWGQGTQVTVSS	low polyreactivity
QVQLVESGGGLVQAGGSLRLSCAASGRTLGRNAMGWYRQAPGKERELVASISSGGSTNYADSVKGRFTISRDNAKNTVYLQMNSLKPEDTAVYYCNKRYRSLYSSGYDYWGQGTQVTVSS	high polyreactivity
QVQLVESGGGLVQAGGSLRLSCAASGRTLGRYAMGWYRPAPGKERELVAAITRRGGITYYADSVKGRFTISRDNAKNTVYLQMNSLKPEDTAVYYCNAVNKSLQPVRDVYPLYRHDYWGQGTQVTVSS	high polyreactivity
QVQLVESGGGLVQAGGSLRLSCAASGRTLGRYAMGWYRQAPGKERELVAAINVGGGTTHYADSVKGRFTISRDNAKNTVYLQMNSLKPEDTAVYYCAAYRYTYGDRHAYDYWGQGTQVTVSS	low polyreactivity
QVQLVESGGGLVQAGGSLRLSCAASGRTLGVYAMGWYRQAPGKERELVATITSGDGTNYADSVKGRFTISRDNAKNTVYLQMNSLKPVDTAVYYCNAEAKSQWFVYPYWYWPLYDYWGPGTQVTVSS	low polyreactivity
QVQLVESGGGLVQAGGSLRLSCAASGRTLHKNVMGWYRQAPGKERELVAAINTGGRTYYADSVKGRFTISRDNAKNTVYLQMNSLKREDTAVYYCAKEGHVNPRPTVGGDYWGQGTQVTVSS	low polyreactivity
QVQLVESGGGLVQAGGSLRLSCAASGRTLIFYAMGWYRQAPGKERELVAAISGSGGRTYYADSVKGRFTISRDNAKNTVYLQMNSLKPEDTAVYYCNRRHSYPYDYWGQGTQVTVSS	high polyreactivity

Sequence	polyreactivity (PSR sort gate)
QVQLVESGGGLVQAGGSLRLSCAASGRTLIVNTMGWYRQAPGKEREFVAAIFSGASTYYAYSVKGRFTISRDNAKNTVYLQMNSLKPEDTAVYYCAVRNWHLIKYLHGYTRYGYWGQCTQVTVSS	low polyreactivity
QVQLVESGGGLVQAGGSLRLSCAASGRTLKINAMGWYRQAPGKERELVARISAGRTYYADSVKGRFTISRDNAKNTVYLQMNSLKPEDTAVYYCARRTNRPPWGFEYWGQGTQVTVSS	high polyreactivity
QVQLVESGGGLVQAGGSLRLSCAASGRTLKVYAMGWYRQAPGKERELVAAINNGGSTNYADSVKGRFTISRDNAKNTVYLQMNSLKPEDTAVYYCNAVYYARYRNYTYYYWGQGTQVTVSS	high polyreactivity
QVQLVESGGGLVQAGGSLRLSCAASGRTLNRYAMGWYRQAPGKERELVAAIRWRGASTYYADSVKGRFTISRDNAKNTVYLQMNSLKPEDTAVYYCAKRFFASTPNFDYWGQGTQVTVSS	high polyreactivity
QVQLVESGGGLVQAGGSLRLSCAASGRTLPFYAMGWYRQAPGKERELLAAINRSGGSTYYADSVKGRFTISRDNAKNTVSLQMNILKPEDTAVYYGNNVTVPGLGYYPPSYSNGHWGQGTQVSVSS	high polyreactivity
QVQLVESGGGLVQAGGSLRLSCAASGRTLPYNAMGWYRQAPGKERELVAAISKRGSSTYYADSVKGRFTISRDNAKNTVYLQMNSLKPEDTAVYYCAKGGSFYYWGQGTQVTVSS	high polyreactivity
QVQLVESGGGLVQAGGSLRLSCAASGRTLQTYVMGWYRQPPGKERELVAAITRGGGSTYYADSVKGRFTISRDNAKNTVYLQMNSLKPEDTAVYYCAASALRFNSRFSHWYNYWGQGTQVTVSS	high polyreactivity
QVQLVESGGGLVQAGGSLRLSCAASGRTLRINTMGWYRQAPGKERELVADITSSGGSTYYADSVKGRFTISRDNAKNTVYLQMNSLKPEDTAVYYCAADPIDIYYWEFDYLGQGTQVTVSS	low polyreactivity
QVQLVESGGGLVQAGGSLRLSCAASGRTLRKYAMGWYRQAPGKERELVAAITWTGGTTYYADSVKWRFTISRDNAKNTVYLQMNSLKPEDTAVYYCATVRSYGYGYDFWGQGTQVTVSS	high polyreactivity
QVQLVESGGGLVQAGGSLRLSCAASGRTLRLYAMGWYRPAPGKERELVASITGRGGSTYYADSVKGRFTISRDNAKNTVYLQMNSLKPEDTAVYYCAKLPLSTAMGYWGQGTQVTVSS	low polyreactivity
QVQLVESGGGLVQAGGSLRLSCAASGRTLRSYAMGWYRQAPGKERELVARISSGGSTTYADSVKGRFTISRDNAKNTVYLQMNSLKPEDTAVYYCNAQLVYTVYRLRYYHWGQGTQVTVSS	high polyreactivity
QVQLVESGGGLVQAGGSLRLSCAASGRTLSLYAMGWYRQAPGKERELVATISKSGGSTDYADSVKGRFTISRDNAKNTVYLQMNSLKPEDTAVYYCAADANSWFTSYQVYGSEFDYWGQGTQVTVSS	low polyreactivity
QVQLVESGGGLVQAGGSLRLSCAASGRTLSNYAMGWYRQAPGKERELVAAISSSGSTNYADSVKGRFTISRDNAKNTVYLQMNSLKPEDTAVYYCAAESWFLRWYRYDYWGQGTQVTVSS	low polyreactivity
QVQLVESGGGLVQAGGSLRLSCAASGRTLSYYAMGWYRQAPGKEREFVAAITGSGGSTYYADSVKGRFTISRDNAKNNVYLQMNSLKPEDTAVYYCNATGLGVFTVEYYYWGQGTQVTVSS	low polyreactivity
QVQLVESGGGLVQAGGSLRLSCAASGRTLTRYTMGWYRQAPGKERELVATISRSGGNTHYADSVKGRFTISRDNAKNTVYLQMNSLKPEDTAVYYCNAVRYALYGYDYWGQGTQVTVSS	high polyreactivity
QVQLVESGGGLVQAGGSLRLSCAASGRTLVDYGMVWYRQAPGKERELVAVITSGGSTYYADSVKGRFTISRDNAKNTVYLQLNSLIQEDTAVYYCAADNCYRGYHSPYDYWGQGTQVTVSS	low polyreactivity
QVQLVESGGGLVQAGGSLRLSCAASGRTLVLYAMGWYRQAPGKERELVAAITWSGDSTYYADSVKGRFTISRDNAKNTVYLQMNSLKPEDTAVYYCAADKSYRRVYYWGQGTQVTVSS	low polyreactivity
QVQLVESGGGLVQAGGSLRLSCAASGRTLVPYAMGWYRQAPGKERELVAAISNVSSTNYADSVKGRFTISRDNAKNTGYLQMNSLKPEDTAVYYCNAVGVPSEYYSWGQGTQVTVSS	low polyreactivity
QVQLVESGGGLVQAGGSLRLSCAASGRTLWSYTMGWYRQAPGKESELVARITIGGSTNYADSVKGRFTISRDNAKNTVYLQMNSLKPEDTAVYYCNARASYSYGSYLSKSYGYDYWGQGTQVTVSS	high polyreactivity
QVQLVESGGGLVQAGGSLRLSCAASGRTLYDYAMEWYRQAPGKERELVAGITSGDSTYYADSVKGRFTISRDNAKNTVDLQMNSLKPEDTAVYYCAADSDTFYYTGYDYDYWGQGTQGTVSS	low polyreactivity
QVQLVESGGGLVQAGGSLRLSCAASGRTLYQYAMGWYRQAPGKERELVAAITWNGGSTYYADSVKGRFTISRDNAKNTVYLQMNSLKPEDTAVYYCAADTVRPWYAYKAHDYWGQGTQVTVSS	low polyreactivity
